Results on three molecules are retold here after patent US20150086592A1, “COMPOSITIONS OF VACCINES AND ADJUVANTS AND METHODS FOR THE TREATMENT OF URINARY TRACT INFECTIONS” (Sequoia Sciences, Inc, priority 2013, published 2015).

Where “and” joins values, the source holds several entries; their conditions need not be identical. Identical values can stand only once.

Data set [1] deals with FimH (Escherichia coli, UniProt P08191, P197R/T222H). Put plainly: biochemical. The method, then: (§1) The biological activity of the FimCH drug substance (for example, from Example 3) is determined by an in vitro mannose binding assay. The FimH protein is a bacterial adhesin utilized by E. coli to bind mannose residues on glycosylated proteins. During urinary tract infections, the FimH adhesin binds mannosylated uroplakin proteins on bladder epithelial cells, which promotes the internalization of bound E. coli. The binding of FimH to mannosylated uroplakin is essential for E. coli to cause urinary tract infections. To monitor the mannose-binding activity of FimH in vitro, FimH binding to the enzyme horseradish peroxidase (HRP) is observed. HRP is a glycosylated protein containing mannose residues, and has previously been used to study mammalian mannose-binding receptors. Complexes of HRP and the lectin ConA, which binds α-D-mannosyl and α-D-glucosyl groups, have also been generated and studied.
FimH (Escherichia coli, UniProt P08191, P197R/T222H), sequence (P08191 22-300 P197R/T222H, one chain of several): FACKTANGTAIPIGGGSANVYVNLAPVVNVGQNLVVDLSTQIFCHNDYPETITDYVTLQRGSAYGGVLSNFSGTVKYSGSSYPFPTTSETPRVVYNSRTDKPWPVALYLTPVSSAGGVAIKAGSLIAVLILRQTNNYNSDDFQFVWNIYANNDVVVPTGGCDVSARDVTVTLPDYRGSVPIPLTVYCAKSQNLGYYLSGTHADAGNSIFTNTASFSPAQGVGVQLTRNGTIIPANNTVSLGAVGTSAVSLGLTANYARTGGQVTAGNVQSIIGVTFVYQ
(§2) HRP is then added, excess HRP is rinsed away, and the activity of bound HRP is detected.

For data set [2], the target named is FimH (Escherichia coli, UniProt P08191). Briefly: biochemical. To be noted: concentration at which 50% inhibition of HRP binding to FimH is observed, inhibitor added in the HRP binding step. The method, then: as §1, §2
FimH (Escherichia coli, UniProt P08191), sequence (P08191 22-300 P197R/T222H, one chain of several): as above
A short description of data set [3]: Storage stability of FimCH. It is filed as physicochemical. To be noted: stored at −20° C., 0.3 mg/mL in 20 mM MES pH 5.9 or 20 mM trisodium citrate, pH 5.4. The method, then: For the HIC column used Butyl Sepharose 4FF (GE Healthcare 17-0980-01) in XK26 column. Buffer C: 20 mM MES/550 mM Ammonium Sulfate, pH 5.9; 8 ml/min for XK26/10 except loading, pre-equilibrate the column with 3 CV of Buffer A (as above), equilibrate the column with 6 CV of Buffer C, load Pooled FimCH sample at 5 ml/min XK26/10 column, wash the column with 6 CV of Buffer C, elute the column with a linear 4 CV gradient from 0-100% Buffer A with fraction collection. FimCH is formulated in the concentration of 0.3 mg/mL in 20 mM MES pH 5.9 or 20 mM trisodium citrate, pH 5.4. It is then aseptically filtered through a 0.2 μm sterile filter. FimCH is stable and can be stored at −20° C. for about at least 2 years.

In data set [4] the target is T1, horseradish peroxidase (HRP) (UniProt P00433 31-338).
T1 sequence: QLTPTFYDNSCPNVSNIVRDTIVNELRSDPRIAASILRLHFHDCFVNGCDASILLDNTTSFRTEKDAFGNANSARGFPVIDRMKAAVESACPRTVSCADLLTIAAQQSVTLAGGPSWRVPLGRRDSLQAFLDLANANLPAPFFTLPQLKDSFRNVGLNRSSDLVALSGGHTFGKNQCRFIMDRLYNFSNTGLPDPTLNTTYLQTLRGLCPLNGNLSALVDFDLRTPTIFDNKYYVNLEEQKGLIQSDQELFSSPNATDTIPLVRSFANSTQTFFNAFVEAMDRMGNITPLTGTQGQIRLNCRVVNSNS
Put plainly: in vitro potency assay; inferred from the lack of HRP signal with the Q133K FimH-FimC complex.

Regarding `CO[C@H]1O[C@H](CO)[C@@H](O)[C@H](O)[C@@H]1O` [MDMP, methyl-α-D-mannopyranoside], the “fold higher 50% inhibition concentration than UFMP” value at FimH [1] (MDMP versus UFMP) was “approximately 100 fold”. In addition, the IC50 (usually the concentration needed to halve the response being measured) at FimH [2] was ~5.15 µM and ~5.1 µM.
For “FimCH: non-covalent complex of FimC and FimH recombinant proteins, approximately 51,700 Daltons”, the “time stable on storage” value in data set [3] is “at least 2 years”. Also, the “HRP binding (mannose-binding activity)” value with FimH [1] (captured by anti-FimH antisera on ELISA plate) is “dose-dependent”.

B1: FimC (other)
chain: GVALGATRVIYPAGQKQVQLAVTNNDENSTYLIQSWVENADGVKDGRFIVTPPLFAMKGKKENTLRILDATNNQLPQDRESLFWMNVKAIPSMDKSKLTENTLQLAIISRIKLYYRPAKLALPPDQAAEKLRFRRSANSLTLINPTPYYLTVTELNAGTRVLENALVPPMGESAVKLPSDAGSNITYRTINDYGALTPKMTGVME
notes: also called FimC protein
Consider B1, for which the binding result in data set [4] is recorded as “no binding”.
